How the values were obtained:
[1] = tested on: CYP2B
Protocol: Primary rat hepatocytes from 6-well plates or chamber slides were lysed and scraped in SDS buffered (10 mM Tris/HCl (ph 7.4), 0.1% SDS). Samples were added to microcentrifuge tubes with 5 μl of PMSF, homogenized with a pestle, and centrifuged at 16,200 g for 5 minutes. Total protein content in the supernatant was determined using the DC protein assay (Bio-Rad, Hercules, Calif.) and used to normalize sample loading. Samples prepared in sample buffer were loaded (10-20 μg/well) for electrophoresis on a 10% polyacrylamide gel. After overnight transfer on to a PVDF membrane, blots were incubated with a blocking buffered (20 mM Tris-Cl (pH 7.4), 500 mM NaCl, 0.1% Tween 20, and 5% (w/v) milk powder) and washed with buffer without milk powder, incubation for 1 h with primary antibody against rat PEPCK or rat CYP2B (Genset, Woburn, Mass.) was followed by washing and incubation with either anti-sheep (PEPCK) or anti-goat (CYP2B) HRP-conjugated secondary antibody for 45 minutes. After washing, the Pierce SuperSignal chemiluminescence reagent was used for detection. All electrophoresis gels were run with molecular mass markers to verify PEPCK bands (67 kDa) or CYP2B1/2 bands (56 kDa). Optical density measurements were obtained using scanned blot images with 1d gelscan software (Metamorph).

[2] = tested on: CYP3A

B1: epidermal growth factor (protein, UniProt P01133 23-1207, looked up)
Pro-epidermal growth factor: PQHWSCPEGTLAGNGNSTCVGPAPFLIFSHGNSIFRIDTEGTNYEQLVVDAGVSVIMDFHYNEKRIYWVDLERQLLQRVFLNGSRQERVCNIEKNVSGMAINWINEEVIWSNQQEGIITVTDMKGNNSHILLSALKYPANVAVDPVERFIFWSSEVAGSLYRADLDGVGVKALLETSEKITAVSLDVLDKRLFWIQYNREGSNSLICSCDYDGGSVHISKHPTQHNLFAMSLFGDRIFYSTWKMKTIWIANKHTGKDMVRINLHSSFVPLGELKVVHPLAQPKAEDDTWEPEQKLCKLRKGNCSSTVCGQDLQSHLCMCAEGYALSRDRKYCEDVNECAFWNHGCTLGCKNTPGSYYCTCPVGFVLLPDGKRCHQLVSCPRNVSECSHDCVLTSEGPLCFCPEGSVLERDGKTCSGCSSPDNGGCSQLCVPLSPVSWECDCFPGYDLQLDEKSCAASGPQPFLLFANSQDIRHMHFDGTDYGTLLSQQMGMVYALDHDPVENKIYFAHTALKWIERANMDGSQRERLIEEGVDVPEGLAVDWIGRRFYWTDRGKSLIGRSDLNGKRSKIITKENISQPRGIAVHPMAKRLFWTDTGINPRIESSSLQGLGRLVIASSDLIWPSGITIDFLTDKLYWCDAKQSVIEMANLDGSKRRRLTQNDVGHPFAVAVFEDYVWFSDWAMPSVMRVNKRTGKDRVRLQGSMLKPSSLVVVHPLAKPGADPCLYQNGGCEHICKKRLGTAWCSCREGFMKASDGKTCLALDGHQLLAGGEVDLKNQVTPLDILSKTRVSEDNITESQHMLVAEIMVSDQDDCAPVGCSMYARCISEGEDATCQCLKGFAGDGKLCSDIDECEMGVPVCPPASSKCINTEGGYVCRCSEGYQGDGIHCLDIDECQLGEHSCGENASCTNTEGGYTCMCAGRLSEPGLICPDSTPPPHLREDDHHYSVRNSDSECPLSHDGYCLHDGVCMYIEALDKYACNCVVGYIGERCQYRDLKWWELRHAGHGQQQKVIVVAVCVVVLVMLLLLSLWGAHYYRTQKLLSKNPKNPYEESSRDVRSRRPADTEDGMSSCPQPWFVVIKEHQDLKNGGQPVAGEDGQAADGSMQPTSWRQEPQLCGMGTEQGCWIPVSSDKGSCPQVMERSFHMPSYGTQTLEGGVEKPHSLLSANPLWQQRALDPPHQMELTQ
modifications: Pro-epidermal growth factor
[1]
  Effect of EGF on DEX-induced CYP2B spatial distribution: significant shift in CYP2B spatial distribution was noted from inlet regions to the outlet
[2]
  Effect of EGF on DEX-induced CYP3A induction: remained uniform
